Assay results reported in patent US20160272683A1 (Novo Nordisk, published 2016).
Numbered stars: 1 amine (or outer) side, 2 acyl side, 3 side chain; on linkers, the order of the positions; unused ones are H or OH. Side chains are listed from the residue outwards. * marks the point of attachment. C20 diacid = O=C(O)CCCCCCCCCCCCCCCCCCC(=O)*; C18 diacid = O=C(O)CCCCCCCCCCCCCCCCC(=O)*; γGlu = O=C(O)[C@H](CCC(=O)[*:2])N[*:1]

B1: [N-terminal(C20 diacid-gGlu), des1, 30T, 31G, 32T]mimylin (peptide)
peptide: {C20 diacid-γGlu}-ASELSTAALGRLSAELHELATLPRTETGTGTP-NH2
SMILES: CC(C)C[C@H](NC(=O)[C@H](C)NC(=O)[C@H](C)NC(=O)[C@@H](NC(=O)[C@H](CO)NC(=O)[C@H](CC(C)C)NC(=O)[C@H](CCC(=O)O)NC(=O)[C@H](CO)NC(=O)[C@H](C)NC(=O)CC[C@H](NC(=O)CCCCCCCCCCCCCCCCCCC(=O)O)C(=O)O)[C@@H](C)O)C(=O)NCC(=O)N[C@@H](CCCNC(=N)N)C(=O)N[C@@H](CC(C)C)C(=O)N[C@@H](CO)C(=O)N[C@@H](C)C(=O)N[C@@H](CCC(=O)O)C(=O)N[C@@H](CC(C)C)C(=O)N[C@@H](Cc1c[nH]cn1)C(=O)N[C@@H](CCC(=O)O)C(=O)N[C@@H](CC(C)C)C(=O)N[C@@H](C)C(=O)N[C@H](C(=O)N[C@@H](CC(C)C)C(=O)N1CCC[C@H]1C(=O)N[C@@H](CCCNC(=N)N)C(=O)N[C@H](C(=O)N[C@@H](CCC(=O)O)C(=O)N[C@H](C(=O)NCC(=O)N[C@H](C(=O)NCC(=O)N[C@H](C(=O)N1CCC[C@H]1C(N)=O)[C@@H](C)O)[C@@H](C)O)[C@@H](C)O)[C@@H](C)O)[C@@H](C)O
B2: [N-terminal(C20 diacid-gGlu), des1, 25H, 30S, 31G]mimylin (peptide)
peptide: {C20 diacid-γGlu}-ASELSTAALGRLSAELHELATLPHTETGSGSP-NH2
SMILES: CC(C)C[C@H](NC(=O)[C@H](C)NC(=O)[C@H](C)NC(=O)[C@@H](NC(=O)[C@H](CO)NC(=O)[C@H](CC(C)C)NC(=O)[C@H](CCC(=O)O)NC(=O)[C@H](CO)NC(=O)[C@H](C)NC(=O)CC[C@H](NC(=O)CCCCCCCCCCCCCCCCCCC(=O)O)C(=O)O)[C@@H](C)O)C(=O)NCC(=O)N[C@@H](CCCNC(=N)N)C(=O)N[C@@H](CC(C)C)C(=O)N[C@@H](CO)C(=O)N[C@@H](C)C(=O)N[C@@H](CCC(=O)O)C(=O)N[C@@H](CC(C)C)C(=O)N[C@@H](Cc1c[nH]cn1)C(=O)N[C@@H](CCC(=O)O)C(=O)N[C@@H](CC(C)C)C(=O)N[C@@H](C)C(=O)N[C@H](C(=O)N[C@@H](CC(C)C)C(=O)N1CCC[C@H]1C(=O)N[C@@H](Cc1c[nH]cn1)C(=O)N[C@H](C(=O)N[C@@H](CCC(=O)O)C(=O)N[C@H](C(=O)NCC(=O)N[C@@H](CO)C(=O)NCC(=O)N[C@@H](CO)C(=O)N1CCC[C@H]1C(N)=O)[C@@H](C)O)[C@@H](C)O)[C@@H](C)O
B3: [N-terminal(C20 diacid-gGlu), des1, 23Y, 30S, 31G, 33Y]mimylin (peptide)
peptide: {C20 diacid-γGlu}-ASELSTAALGRLSAELHELATYPRTETGSGSY-NH2
SMILES: CC(C)C[C@H](NC(=O)[C@H](C)NC(=O)[C@H](C)NC(=O)[C@@H](NC(=O)[C@H](CO)NC(=O)[C@H](CC(C)C)NC(=O)[C@H](CCC(=O)O)NC(=O)[C@H](CO)NC(=O)[C@H](C)NC(=O)CC[C@H](NC(=O)CCCCCCCCCCCCCCCCCCC(=O)O)C(=O)O)[C@@H](C)O)C(=O)NCC(=O)N[C@@H](CCCNC(=N)N)C(=O)N[C@@H](CC(C)C)C(=O)N[C@@H](CO)C(=O)N[C@@H](C)C(=O)N[C@@H](CCC(=O)O)C(=O)N[C@@H](CC(C)C)C(=O)N[C@@H](Cc1c[nH]cn1)C(=O)N[C@@H](CCC(=O)O)C(=O)N[C@@H](CC(C)C)C(=O)N[C@@H](C)C(=O)N[C@H](C(=O)N[C@@H](Cc1ccc(O)cc1)C(=O)N1CCC[C@H]1C(=O)N[C@@H](CCCNC(=N)N)C(=O)N[C@H](C(=O)N[C@@H](CCC(=O)O)C(=O)N[C@H](C(=O)NCC(=O)N[C@@H](CO)C(=O)NCC(=O)N[C@@H](CO)C(=O)N[C@@H](Cc1ccc(O)cc1)C(N)=O)[C@@H](C)O)[C@@H](C)O)[C@@H](C)O
B4: [N-terminal(C18 diacid-gGlu), des1, 9V, 30S, 31G]mimylin (peptide)
peptide: {C18 diacid-γGlu}-ASELSTAVLGRLSAELHELATLPRTETGSGSP-NH2
SMILES: CC(C)C[C@H](NC(=O)[C@H](CCC(=O)O)NC(=O)[C@H](Cc1c[nH]cn1)NC(=O)[C@H](CC(C)C)NC(=O)[C@H](CCC(=O)O)NC(=O)[C@H](C)NC(=O)[C@H](CO)NC(=O)[C@H](CC(C)C)NC(=O)[C@H](CCCNC(=N)N)NC(=O)CNC(=O)[C@H](CC(C)C)NC(=O)[C@@H](NC(=O)[C@H](C)NC(=O)[C@@H](NC(=O)[C@H](CO)NC(=O)[C@H](CC(C)C)NC(=O)[C@H](CCC(=O)O)NC(=O)[C@H](CO)NC(=O)[C@H](C)NC(=O)CC[C@H](NC(=O)CCCCCCCCCCCCCCCCC(=O)O)C(=O)O)[C@@H](C)O)C(C)C)C(=O)N[C@@H](C)C(=O)N[C@H](C(=O)N[C@@H](CC(C)C)C(=O)N1CCC[C@H]1C(=O)N[C@@H](CCCNC(=N)N)C(=O)N[C@H](C(=O)N[C@@H](CCC(=O)O)C(=O)N[C@H](C(=O)NCC(=O)N[C@@H](CO)C(=O)NCC(=O)N[C@@H](CO)C(=O)N1CCC[C@H]1C(N)=O)[C@@H](C)O)[C@@H](C)O)[C@@H](C)O
B5: [N-terminal(C18 diacid-gGlu), des1, 30S, 31G, 32P]mimylin (peptide)
peptide: {C18 diacid-γGlu}-ASELSTAALGRLSAELHELATLPRTETGSGPP-NH2
SMILES: CC(C)C[C@H](NC(=O)[C@H](C)NC(=O)[C@H](C)NC(=O)[C@@H](NC(=O)[C@H](CO)NC(=O)[C@H](CC(C)C)NC(=O)[C@H](CCC(=O)O)NC(=O)[C@H](CO)NC(=O)[C@H](C)NC(=O)CC[C@H](NC(=O)CCCCCCCCCCCCCCCCC(=O)O)C(=O)O)[C@@H](C)O)C(=O)NCC(=O)N[C@@H](CCCNC(=N)N)C(=O)N[C@@H](CC(C)C)C(=O)N[C@@H](CO)C(=O)N[C@@H](C)C(=O)N[C@@H](CCC(=O)O)C(=O)N[C@@H](CC(C)C)C(=O)N[C@@H](Cc1c[nH]cn1)C(=O)N[C@@H](CCC(=O)O)C(=O)N[C@@H](CC(C)C)C(=O)N[C@@H](C)C(=O)N[C@H](C(=O)N[C@@H](CC(C)C)C(=O)N1CCC[C@H]1C(=O)N[C@@H](CCCNC(=N)N)C(=O)N[C@H](C(=O)N[C@@H](CCC(=O)O)C(=O)N[C@H](C(=O)NCC(=O)N[C@@H](CO)C(=O)NCC(=O)N1CCC[C@H]1C(=O)N1CCC[C@H]1C(N)=O)[C@@H](C)O)[C@@H](C)O)[C@@H](C)O
B6: [N-terminal(C20 diacid-gGlu), des1, 23Y, 30S, 31G, 32A]mimylin (peptide)
peptide: {C20 diacid-γGlu}-ASELSTAALGRLSAELHELATYPRTETGSGAP-NH2
SMILES: CC(C)C[C@H](NC(=O)[C@H](C)NC(=O)[C@H](C)NC(=O)[C@@H](NC(=O)[C@H](CO)NC(=O)[C@H](CC(C)C)NC(=O)[C@H](CCC(=O)O)NC(=O)[C@H](CO)NC(=O)[C@H](C)NC(=O)CC[C@H](NC(=O)CCCCCCCCCCCCCCCCCCC(=O)O)C(=O)O)[C@@H](C)O)C(=O)NCC(=O)N[C@@H](CCCNC(=N)N)C(=O)N[C@@H](CC(C)C)C(=O)N[C@@H](CO)C(=O)N[C@@H](C)C(=O)N[C@@H](CCC(=O)O)C(=O)N[C@@H](CC(C)C)C(=O)N[C@@H](Cc1c[nH]cn1)C(=O)N[C@@H](CCC(=O)O)C(=O)N[C@@H](CC(C)C)C(=O)N[C@@H](C)C(=O)N[C@H](C(=O)N[C@@H](Cc1ccc(O)cc1)C(=O)N1CCC[C@H]1C(=O)N[C@@H](CCCNC(=N)N)C(=O)N[C@H](C(=O)N[C@@H](CCC(=O)O)C(=O)N[C@H](C(=O)NCC(=O)N[C@@H](CO)C(=O)NCC(=O)N[C@@H](C)C(=O)N1CCC[C@H]1C(N)=O)[C@@H](C)O)[C@@H](C)O)[C@@H](C)O

How the values were obtained:
[1] = target: T1, human calcitonin receptor on BHK570/CRE-luc cells (human, UniProt P30988 25-474); test: cell-based or functional assay
T1 sequence (looked up): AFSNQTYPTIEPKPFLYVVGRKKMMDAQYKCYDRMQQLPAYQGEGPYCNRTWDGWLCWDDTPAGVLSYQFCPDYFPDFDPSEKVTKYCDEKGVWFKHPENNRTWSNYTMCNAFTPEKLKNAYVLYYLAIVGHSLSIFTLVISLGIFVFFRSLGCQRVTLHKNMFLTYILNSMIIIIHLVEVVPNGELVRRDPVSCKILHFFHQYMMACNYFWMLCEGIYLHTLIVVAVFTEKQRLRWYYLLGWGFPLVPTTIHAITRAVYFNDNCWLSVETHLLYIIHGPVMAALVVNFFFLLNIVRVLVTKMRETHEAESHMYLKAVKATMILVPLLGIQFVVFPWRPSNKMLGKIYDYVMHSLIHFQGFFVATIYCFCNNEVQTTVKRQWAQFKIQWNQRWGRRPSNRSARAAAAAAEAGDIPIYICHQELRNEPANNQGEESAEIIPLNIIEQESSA

[2] = target: T2, human amylin 3(a) receptor (human calcitonin receptor co-expressed with RAMP-3) on BHK570/CRE-luc cells (human, UniProt P30988 25-474; O60896 24-148); test: cell-based or functional assay
T2 sequence (looked up) 1: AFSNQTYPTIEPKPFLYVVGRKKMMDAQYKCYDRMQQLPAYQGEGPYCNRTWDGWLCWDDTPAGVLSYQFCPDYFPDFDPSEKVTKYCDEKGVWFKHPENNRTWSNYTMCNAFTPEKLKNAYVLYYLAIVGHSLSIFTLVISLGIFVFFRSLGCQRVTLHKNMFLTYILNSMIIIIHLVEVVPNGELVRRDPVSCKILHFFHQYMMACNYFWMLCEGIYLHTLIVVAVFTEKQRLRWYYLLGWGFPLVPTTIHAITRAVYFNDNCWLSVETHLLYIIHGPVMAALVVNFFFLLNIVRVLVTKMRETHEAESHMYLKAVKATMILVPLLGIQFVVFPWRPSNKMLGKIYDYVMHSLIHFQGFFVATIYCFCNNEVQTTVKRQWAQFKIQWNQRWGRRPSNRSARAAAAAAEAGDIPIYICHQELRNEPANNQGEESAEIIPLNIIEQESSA
T2 sequence (looked up) 2: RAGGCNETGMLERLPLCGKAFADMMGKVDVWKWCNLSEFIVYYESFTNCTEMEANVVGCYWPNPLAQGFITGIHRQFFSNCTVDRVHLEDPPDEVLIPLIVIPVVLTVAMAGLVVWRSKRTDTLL

Binder | hCTR funct. EC50 (pM), tested with HSA [1] [pM] | hAmylin-R funct. EC50 (pM), tested with HSA [2] [pM]
B1 | 56 | 134
{C20 diacid-γGlu}-ASELSTAALGHLSAELHELATLPRTETGSGSP-NH2 [[N-terminal(C20 diacid-gGlu), des1, 12H, 30S, 31G]mimylin] | 48 | 230
B2 | 22 | 185
Ac-ASK([γGlu-C20 diacid])LSTAALGRLSAELHELATLPRTETGSGSP-NH2 [[N-terminal(acetyl), des1, 4K(C20 diacid-gGlu), 30S, 31G]mimylin] | 37 | 72
B3 | 71 | 93
Ac-ASELSTAALGRLSAELHK([γGlu-C20 diacid])LATLPRTETGSGSP-NH2 [[N-terminal(acetyl), des1, 19K(C20 diacid-gGlu), 30S, 31G]mimylin] | 22 | 47
Ac-ASELSTAALGRLSAK([γGlu-C20 diacid])LHELATLPRTETGSGSP-NH2 [[N-terminal(acetyl), des1, 16K(C20 diacid-gGlu), 30S, 31G]mimylin] | 44 | 100
B4 | 11 | 17
B5 | 95 | 413
B6 | 37 | 100
{C20 diacid-γGlu}-ASGLSTAALGRLSAELHELATYPRTETGSGSP-NH2 [[N-terminal(C20 diacid-gGlu), des1, 4G, 23Y, 30S, 31G]mimylin] | 45 | 71
